The stoichiometry N is the number of molecules, sites or subunits per partner or assembly.

In paper PMC6858323, “Multiple conformations facilitate PilT function in the type IV pilus” (Nature Communications, 2019) one finds stoichiometry N data, which are given here for 3 substances.

In assay [1] the target is PilB from Geobacter metallireducens (PilB^Gm) (Geobacter metallireducens). The experiment in a line: cryo-EM structure; PilB^Gm 0.6 mg/ml without added nucleotide, 4 °C; 2D class averages and 7.8 Å 3D map, CCOCCO conformation.
Assay [2] deals with PilT4 from Geobacter metallireducens (PilT^Gm) (Geobacter metallireducens GS-15). In words: crystal structure; PilT^Gm with 2 mM ATP and 2 mM MgCl2; 9% PEG4000, 100 mM MES pH 6, 200 mM MgCl2; 20 °C; 1.9 Å; CCCCCC conformation.
Assay [3] shares this target. The experiment in a line: crystal structure; PilT^Gm with 2 mM ANP and 2 mM MgCl2; 2% benzamidine-HCl, 100 mM HEPES-HCl pH 7.9, 200 mM ammonium acetate, 17.5% PEG3350; 20 °C; anisotropic 4.1, 6.7 and 4.0 Å; CCOCCO conformation.
The target is the same in assay [4]. In words: crystal structure; PilT^Gm without added nucleotide (partial-occupancy ADP, pH 7.1, 3.0 Å) or preincubated with Mg2+ and ATP and unbound nucleotide removed (full-occupancy ADP, pH 7.6); 11.5% PEG3350, 200 mM L-proline, 100 mM HEPES; 20 °C; OCOCOC conformation, pseudo-C3.
Assay [5] shares this target. In words: cryo-EM structure; PilT^Gm 0.5 mg/ml incubated 10 min at 4 °C with 1 mM MgCl2 plus 1 mM ATP; 4.4 Å map, CCCCCC conformation; 2D class averages also with 1 mM ATP plus 0.1 or 1 mM ADP.
For assay [6] the target is unchanged. The experiment in a line: cryo-EM structure; PilT^Gm 0.5 mg/ml without added nucleotide, 4 °C; untilted 2D class averages and 40° tilted 3D maps (OCOCOC 4.0 Å, OOCOOC 4.1 Å); 2D class averages also with 1 mM MgCl2 plus 0.1 or 1 mM ADP.
The target in assay [7] is reductively methylated PilT4 from Geobacter metallireducens (methylated PilT^Gm) (Geobacter metallireducens GS-15). The experiment in a line: crystal structure; methylated PilT^Gm, no added nucleotide; vapor diffusion 20 °C; 200 mM ammonium sulfate, 100 mM Bis-Tris-HCl pH 6.5, 25% PEG3350; 3.3 Å; OCOCOC conformation.

“PilB from Geobacter metallireducens (PilB^Gm) (enzyme)”: the stoichiometry N in assay [1] is 6.

For the substance “PilT4 from Geobacter metallireducens (PilT^Gm) (enzyme)”, the stoichiometry N in assay [2], in assay [3], in assay [4], in assay [5] and in assay [6] was 6 each time.

Substance “reductively methylated PilT4 from Geobacter metallireducens (methylated PilT^Gm) (enzyme)” had a stoichiometry N in assay [7] of 6.
